The text below walks through data of publication PMC3864932, “Identification of Crucial Amino Acids in Mouse Aldehyde Oxidase 3 That Determine Substrate Specificity” (PLoS ONE, 2013).

Holding throughout (experiment): purified protein
Common to all, as to format: biochemical, Mus musculus
Holding throughout (conditions): 100 µM DCPIP as electron acceptor, 50 mM Tris-HCl pH 8.0, 1 mM EDTA, 37 °C, kcat corrected for Mo content

Substrate in data set [1]: O=c1[nH]cnc2nc[nH]c12
Substrate in data set [2]: Oc1ncnc2[nH]ncc12
Substrate in data set [3]: O=Cc1ccccc1

B1: mAOX3 (mouse aldehyde oxidase 3) (Mus musculus; A807E/D878L/F776K/G1013S/K1016V/K889H/L881S/P1015T/S1011G/V1012I/Y1019L/Y1020N/Y885R) (protein)
chain: MSPSKESDELIFFVNGKKVTERNADPEVNLLFYLRKVIRLTGTKYGCGGGDCGACTVMISRYDPISKRISHFSATACLVPICSLHGAAVTTVEGIGSTKTRIHPVQERIAKGHGTQCGFCTPGMVMSIYTLLRNHPEPSTEQIMETLGGNLCRCTGYRPIVESAKSFCPSSTCCQMNGEGKCCLDEEKNEPERKNSVCTKLYEKKEFQPLDPTQELIFPPELMRMAEESQNTVLTFRGERTTWIAPGTLNDLLELKMKHPSAPLVIGNTYLGLHMKFTDVSYPIIISPARILELFVVTNTKQGLTLGAGLSLTQVKNVLSDVVSRLPKEKTQIYCALLKQLKTLAGQQIRNVASLGGHIISRLPTSDLNPILGIGNCILNVASTEGIQQIPLNDHFLAGVPDAILKPEQVLISVFVPRSSKWEFVSAFRQAPRQQNAFATVNAGMKVVFKEDTNTITDLGILYGGIGATVISADKSCRQLIGRCWDEEMLDDAGKMICEEVSLLMAAPGGMEEYRKTLAISFLFMFYLDVLKQLKTRDPHKYPDISQKLLHILEDFPLTMPYGMQSFQDVDFQQPLQDPIGRPIMHQSGIKHATGEAVFCDDMSVLPGELFLAVVTSSKSHAKIISLDASEALASLGVVDVVTARDVPGDNGREEESLYAQDEVICVGQIVCAVAADSYAHAQQAAKKVKIVYQDIEPMIVTVQDALQYESFIGPERKLEQGNVEEAFQCADQILEGEVHLGGQEHFYMETQSVRVVPKGEDKEMDIYVSSQDAAKTQEMVARTLGIPKNRINCHVKRVGGAFGGKESKPGLLASVAAVAAQKTGRPIRFILERRDDMLITGGRHPLLGKYKIGFMNNGKIKAADIQLYINGGCTPDLSESVIERALLHLENAYKIPNLRVRGRVCKTNLPSNTAFRGFGFPQGAFVTETCMSAVAAKCRLPPEKVRELNMYRTIDRTIHNQEFDPTNLLQCWEACVENSSYYNRKKAVDEFNQQRFWKKRGIAIIPMKFGISFTVTFLNQAAALVQIYTDGSVLVAHGGVELGQGINTKMIQVASRELKIPMSYIHLDEMSTVTVPNTVTTGASTGADVNGRAVQNACQILMKRLEPIIKQNPSGTWEEWVKEAFVQSISLSATGYFRGYQADMDWEKGEGDIFPYFVFGAACSEVEIDCLTGAHKNIRTDIVMDGSFSINPAVDIGQIEGAFVQGLGLYTLEELKYSPEGVLYTRGPHQYKIASVTDIPEEFHVSLLTPTPNPKAIYSSKGLGEAGTFLGCSVFFAIAAAVAAAREERGLSPIWAINSPATAEVIRMACEDQFTNLVPQTDSKCCKPWSIPVA
notes: N-terminal His6-tag, full length, plasmid pMMA1, expressed in E. coli; homodimer with Moco, two [2Fe-2S], FAD
For orientation: Km means the substrate concentration at which the rate is half of its maximum. The term kcat denotes the number of substrate molecules converted per active site and unit of time at saturation. The kcat/Km is the second-order rate constant that governs catalysis at low substrate concentration. As for B1, in the data set “purified protein [1]”, the Km is 1736 ± 155 µM, the kcat stood at 0.0833 s⁻¹ and the kcat/Km amounted to 47.8 ± 5.83 M⁻¹ s⁻¹. In “purified protein [2]”, the Km is 620 ± 16 µM, the kcat is 0.65 ± 0.05 s⁻¹ and the kcat/Km amounted to 1050 ± 83.3 M⁻¹ s⁻¹.

B2: mAOX3 (mouse aldehyde oxidase 3) (Mus musculus; F1014I) (protein)
chain: MSPSKESDELIFFVNGKKVTERNADPEVNLLFYLRKVIRLTGTKYGCGGGDCGACTVMISRYDPISKRISHFSATACLVPICSLHGAAVTTVEGIGSTKTRIHPVQERIAKGHGTQCGFCTPGMVMSIYTLLRNHPEPSTEQIMETLGGNLCRCTGYRPIVESAKSFCPSSTCCQMNGEGKCCLDEEKNEPERKNSVCTKLYEKKEFQPLDPTQELIFPPELMRMAEESQNTVLTFRGERTTWIAPGTLNDLLELKMKHPSAPLVIGNTYLGLHMKFTDVSYPIIISPARILELFVVTNTKQGLTLGAGLSLTQVKNVLSDVVSRLPKEKTQIYCALLKQLKTLAGQQIRNVASLGGHIISRLPTSDLNPILGIGNCILNVASTEGIQQIPLNDHFLAGVPDAILKPEQVLISVFVPRSSKWEFVSAFRQAPRQQNAFATVNAGMKVVFKEDTNTITDLGILYGGIGATVISADKSCRQLIGRCWDEEMLDDAGKMICEEVSLLMAAPGGMEEYRKTLAISFLFMFYLDVLKQLKTRDPHKYPDISQKLLHILEDFPLTMPYGMQSFQDVDFQQPLQDPIGRPIMHQSGIKHATGEAVFCDDMSVLPGELFLAVVTSSKSHAKIISLDASEALASLGVVDVVTARDVPGDNGREEESLYAQDEVICVGQIVCAVAADSYAHAQQAAKKVKIVYQDIEPMIVTVQDALQYESFIGPERKLEQGNVEEAFQCADQILEGEVHLGGQEHFYMETQSVRVVPKGEDKEMDIYVSSQDAAFTQEMVARTLGIPKNRINCHVKRVGGAFGGKASKPGLLASVAAVAAQKTGRPIRFILERRDDMLITGGRHPLLGKYKIGFMNNGKIKAADIQLYINGGCTPDDSELVIEYALLKLENAYKIPNLRVRGRVCKTNLPSNTAFRGFGFPQGAFVTETCMSAVAAKCRLPPEKVRELNMYRTIDRTIHNQEFDPTNLLQCWEACVENSSYYNRKKAVDEFNQQRFWKKRGIAIIPMKFSVGIPKTFYYQAAALVQIYTDGSVLVAHGGVELGQGINTKMIQVASRELKIPMSYIHLDEMSTVTVPNTVTTGASTGADVNGRAVQNACQILMKRLEPIIKQNPSGTWEEWVKEAFVQSISLSATGYFRGYQADMDWEKGEGDIFPYFVFGAACSEVEIDCLTGAHKNIRTDIVMDGSFSINPAVDIGQIEGAFVQGLGLYTLEELKYSPEGVLYTRGPHQYKIASVTDIPEEFHVSLLTPTPNPKAIYSSKGLGEAGTFLGCSVFFAIAAAVAAAREERGLSPIWAINSPATAEVIRMACEDQFTNLVPQTDSKCCKPWSIPVA
notes: as for B1
Regarding B2, in the data set “purified protein [3]”, the Km is 22.7 ± 2.7 µM, the kcat was 0.317 ± 0.05 s⁻¹ and the kcat/Km was 13300 ± 3330 M⁻¹ s⁻¹.

B3: mAOX3 (mouse aldehyde oxidase 3) (Mus musculus; A807E/D878L/F776K/K889H/L881S/P1015T/Y1019L/Y885R) (protein)
chain: MSPSKESDELIFFVNGKKVTERNADPEVNLLFYLRKVIRLTGTKYGCGGGDCGACTVMISRYDPISKRISHFSATACLVPICSLHGAAVTTVEGIGSTKTRIHPVQERIAKGHGTQCGFCTPGMVMSIYTLLRNHPEPSTEQIMETLGGNLCRCTGYRPIVESAKSFCPSSTCCQMNGEGKCCLDEEKNEPERKNSVCTKLYEKKEFQPLDPTQELIFPPELMRMAEESQNTVLTFRGERTTWIAPGTLNDLLELKMKHPSAPLVIGNTYLGLHMKFTDVSYPIIISPARILELFVVTNTKQGLTLGAGLSLTQVKNVLSDVVSRLPKEKTQIYCALLKQLKTLAGQQIRNVASLGGHIISRLPTSDLNPILGIGNCILNVASTEGIQQIPLNDHFLAGVPDAILKPEQVLISVFVPRSSKWEFVSAFRQAPRQQNAFATVNAGMKVVFKEDTNTITDLGILYGGIGATVISADKSCRQLIGRCWDEEMLDDAGKMICEEVSLLMAAPGGMEEYRKTLAISFLFMFYLDVLKQLKTRDPHKYPDISQKLLHILEDFPLTMPYGMQSFQDVDFQQPLQDPIGRPIMHQSGIKHATGEAVFCDDMSVLPGELFLAVVTSSKSHAKIISLDASEALASLGVVDVVTARDVPGDNGREEESLYAQDEVICVGQIVCAVAADSYAHAQQAAKKVKIVYQDIEPMIVTVQDALQYESFIGPERKLEQGNVEEAFQCADQILEGEVHLGGQEHFYMETQSVRVVPKGEDKEMDIYVSSQDAAKTQEMVARTLGIPKNRINCHVKRVGGAFGGKESKPGLLASVAAVAAQKTGRPIRFILERRDDMLITGGRHPLLGKYKIGFMNNGKIKAADIQLYINGGCTPDLSESVIERALLHLENAYKIPNLRVRGRVCKTNLPSNTAFRGFGFPQGAFVTETCMSAVAAKCRLPPEKVRELNMYRTIDRTIHNQEFDPTNLLQCWEACVENSSYYNRKKAVDEFNQQRFWKKRGIAIIPMKFSVGFTKTFLYQAAALVQIYTDGSVLVAHGGVELGQGINTKMIQVASRELKIPMSYIHLDEMSTVTVPNTVTTGASTGADVNGRAVQNACQILMKRLEPIIKQNPSGTWEEWVKEAFVQSISLSATGYFRGYQADMDWEKGEGDIFPYFVFGAACSEVEIDCLTGAHKNIRTDIVMDGSFSINPAVDIGQIEGAFVQGLGLYTLEELKYSPEGVLYTRGPHQYKIASVTDIPEEFHVSLLTPTPNPKAIYSSKGLGEAGTFLGCSVFFAIAAAVAAAREERGLSPIWAINSPATAEVIRMACEDQFTNLVPQTDSKCCKPWSIPVA
notes: as for B1
For B3, in the data set “purified protein [1]”, the Km is 4085 ± 227 µM, the kcat was 0.417 ± 0.0167 s⁻¹ and the kcat/Km is 104 ± 8 M⁻¹ s⁻¹. In addition, in “purified protein [3]”, the Km stood at 2122 ± 88 µM, the kcat is 3.9 ± 0.25 s⁻¹ and the kcat/Km came out at 1830 ± 133 M⁻¹ s⁻¹. In “purified protein [2]”, the Km is 133 ± 10 µM, the kcat was 1.58 ± 0.1 s⁻¹ and the kcat/Km was 12000 ± 1120 M⁻¹ s⁻¹.

B4: mAOX3 (mouse aldehyde oxidase 3) (Mus musculus; A807E/D878L/F776K/L881S/P1015T/Y1019L/Y885R) (protein)
chain: MSPSKESDELIFFVNGKKVTERNADPEVNLLFYLRKVIRLTGTKYGCGGGDCGACTVMISRYDPISKRISHFSATACLVPICSLHGAAVTTVEGIGSTKTRIHPVQERIAKGHGTQCGFCTPGMVMSIYTLLRNHPEPSTEQIMETLGGNLCRCTGYRPIVESAKSFCPSSTCCQMNGEGKCCLDEEKNEPERKNSVCTKLYEKKEFQPLDPTQELIFPPELMRMAEESQNTVLTFRGERTTWIAPGTLNDLLELKMKHPSAPLVIGNTYLGLHMKFTDVSYPIIISPARILELFVVTNTKQGLTLGAGLSLTQVKNVLSDVVSRLPKEKTQIYCALLKQLKTLAGQQIRNVASLGGHIISRLPTSDLNPILGIGNCILNVASTEGIQQIPLNDHFLAGVPDAILKPEQVLISVFVPRSSKWEFVSAFRQAPRQQNAFATVNAGMKVVFKEDTNTITDLGILYGGIGATVISADKSCRQLIGRCWDEEMLDDAGKMICEEVSLLMAAPGGMEEYRKTLAISFLFMFYLDVLKQLKTRDPHKYPDISQKLLHILEDFPLTMPYGMQSFQDVDFQQPLQDPIGRPIMHQSGIKHATGEAVFCDDMSVLPGELFLAVVTSSKSHAKIISLDASEALASLGVVDVVTARDVPGDNGREEESLYAQDEVICVGQIVCAVAADSYAHAQQAAKKVKIVYQDIEPMIVTVQDALQYESFIGPERKLEQGNVEEAFQCADQILEGEVHLGGQEHFYMETQSVRVVPKGEDKEMDIYVSSQDAAKTQEMVARTLGIPKNRINCHVKRVGGAFGGKESKPGLLASVAAVAAQKTGRPIRFILERRDDMLITGGRHPLLGKYKIGFMNNGKIKAADIQLYINGGCTPDLSESVIERALLKLENAYKIPNLRVRGRVCKTNLPSNTAFRGFGFPQGAFVTETCMSAVAAKCRLPPEKVRELNMYRTIDRTIHNQEFDPTNLLQCWEACVENSSYYNRKKAVDEFNQQRFWKKRGIAIIPMKFSVGFTKTFLYQAAALVQIYTDGSVLVAHGGVELGQGINTKMIQVASRELKIPMSYIHLDEMSTVTVPNTVTTGASTGADVNGRAVQNACQILMKRLEPIIKQNPSGTWEEWVKEAFVQSISLSATGYFRGYQADMDWEKGEGDIFPYFVFGAACSEVEIDCLTGAHKNIRTDIVMDGSFSINPAVDIGQIEGAFVQGLGLYTLEELKYSPEGVLYTRGPHQYKIASVTDIPEEFHVSLLTPTPNPKAIYSSKGLGEAGTFLGCSVFFAIAAAVAAAREERGLSPIWAINSPATAEVIRMACEDQFTNLVPQTDSKCCKPWSIPVA
notes: as for B1
B4: in the data set “purified protein [2]”, the Km turned out to be 2933 ± 380 µM, the turnover number (kcat) came out at 0.233 ± 0.0167 s⁻¹ and the kcat/Km was 83.3 ± 16.7 M⁻¹ s⁻¹.
